± gives the uncertainty stated by the source.
Test: amyloid nucleation score (Sup35N fusion, yeast selection) (log enrichment); library NNK3; higher = more nucleation; inactive = no reads after selection
Method in brief: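 On medium lacking adenine and uracil, psi-negative yeast expressing peptides of 20 random codons fused to Sup35N were grown 7 days at 30°C after a 24-hour induction with 100 μM copper sulfate. Illumina sequencing of input and output plasmid inserts gave the reads, and sequences under 100 input reads were excluded. The nucleation score is the DiMSum log enrichment of output over input reads, centred on the mode score of non-aggregating sequences.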

Row | Substance | amyloid nucleation score
1 | RLMNFVPSFVFCCFYKK | 1.27 ± 0.14
2 | RLNTMCYSSALASS | inactive
3 | RLNYWMTDDGCGRSCDTRVE | inactive
4 | RLRQTATCIRFVFAGNVLAN | 0.018 ± 1.2
5 | RLSGSEKVELM | inactive
6 | RLSYQYFCQAMRMEGEFWSY | -0.16 ± 0.33
7 | RLTYIVCSA | inactive
8 | RLVWGCCLLDTCVVEQGSGV | 2.78 ± 0.076
9 | RLYLNSFSHQNSCPRDLDGL | 0.969 ± 0.1
10 | RMCKTATVIHYGLFINLTEF | inactive
11 | RMEKIRTKVNSVTDSSWKSR | inactive
12 | RMFVSIRLLGTCCSDWSYYE | 1.78 ± 0.085
13 | RMGHVFMYDYHIV | inactive
14 | RMGIASIYAIVLQPMIRLWL | inactive
15 | RMLMIMVACVGTYDSSN | inactive
16 | RMPYKMQFFCNLWLSVYSTL | inactive
17 | RMRDRSGMGRTFHHGTQTTV | inactive
18 | RMSVSSFRVVWSTIAYTKST | inactive
19 | RMWLD | inactive
20 | RNCNETLNIVETGNSISANV | inactive
21 | RNGLSIGVNVGHLT | inactive
22 | RNIRYLTLYQVTYLGRRRT | 2.25 ± 0.093
23 | RNSIMSSDWSHSGYGS | inactive
24 | RNSTMIYTQ | 2.24 ± 0.093

Row | Substance | amyloid nucleation score
25 | RNYNYFINCVHWLYLVSWGL | 0.605 ± 0.45
26 | RPFNRTYHILLYQMHYVRST | inactive
27 | RPFSPVVLMVYGKKRRTWTR | inactive
28 | RPGTCNLLVDGHLSWFQSAT | -0.288 ± 1
29 | RPMDDKWLIGLFARNERDVP | inactive
30 | RPRLYFLTSNLKTQCAVHNA | inactive
31 | RPRMPVRLWWYTKLGYFKDR | inactive
32 | RPSSVDRLGSRDIRG | -0.413 ± 1.9
33 | RPTGYQVTYEMRRSGG | inactive
34 | RPVSGTNFINAN | inactive
35 | RPVSTSYVRLRRVRFSYNLN | inactive
36 | RQDLSHSFSDGRERQHWAKR | -0.165 ± 0.81
37 | RQLVNCQGFVLYTREMDFEA | inactive
38 | RQWQGNFSSVGFLEIKDALF | inactive
39 | RQYWCFYQSWNSLG | inactive
40 | RRAGNKWYVR | inactive
41 | RRALYKLSSKESWPVDCNSV | inactive
42 | RRFKYIGLRGTMHRLNYFGL | inactive
43 | RRGNDRKRLWAVNLDTGNFL | inactive
44 | RRRERGASNVDELWF | inactive
45 | RRRLG | inactive
46 | RRRLIR | inactive
47 | RRSRFTFSYIIRSLCASRTF | inactive
48 | RRSTYLIVFVG | inactive

Row | Substance | amyloid nucleation score
49 | RRTPLWSPMVRNLSYALLAG | inactive
50 | RRVTFGGMAHSERKRYCLFT | inactive
51 | RRYIRSVNCKQWDYKFLMYS | inactive
52 | RSALRVM | inactive
53 | RSANLICLSPLSIIIRDKTL | inactive
54 | RSAPCC | inactive
55 | RSAVISTLRYSW | -0.289 ± 0.41
56 | RSDLCFC | inactive
57 | RSDSWLIYSSPINMM | inactive
58 | RSFVVNYWGFSDMLHFCRLC | inactive
59 | RSGFAKMNAILLYFASFLL | inactive
60 | RSGSLIGAVYRNMVVLNRMG | inactive
61 | RSHGVLNLILCSPFLSDTGQ | 2.78 ± 0.074
62 | RSKEMNVKASKNSMVHVSEV | inactive
63 | RSLCQQYQRFSSLRKVIGLS | inactive
64 | RSLDD | inactive
65 | RSLTLW | inactive
66 | RSLYWIWWDDSKSNE | inactive
67 | RSMIWRKCF | inactive
68 | RSMYR | inactive
69 | RSNICQFLKDFYKRCRKLF | inactive
70 | RSNVVAQMYQKMLLSRYCTI | 0.354 ± 0.27
71 | RSNYRGYFK | -0.498 ± 1.4
72 | RSPRFLRELVLGCSNCWFCG | inactive

Row | Substance | amyloid nucleation score
73 | RSQRKTFHWKFWRPSCSDQW | 0.868 ± 0.12
74 | RSQSVQKIEATLSLLIGAPK | inactive
75 | RSTAPGTGSDIPFEDSLRQM | inactive
76 | RSTDTFWACCSDKTLSLWSA | inactive
77 | RSTTTMEYWFSCAVYSPKSV | 0.682 ± 0.12
78 | RSTWFSFFRRTAHWKKALRP | inactive
79 | RSVSDYSSNCRAHCLVDDDT | inactive
80 | RSVVVLT | inactive
81 | RTAMVVDSYAKSFMSQASVL | inactive
82 | RTECYVYKYDALDSRLGYCD | -0.18 ± 0.62
83 | RTFPLTLRSSHSPFKPLMFL | inactive
84 | RTHRRKSDTVMLES | inactive
85 | RTLCRLWTLCCRCRSYALFR | inactive
86 | RTMLTQFPCYWVSIHSVLVS | inactive
87 | RTNILVGRIR | inactive
88 | RTSVDQLEMKMRFSMSFGWL | 0.449 ± 0.64
89 | RVEIRIIS | inactive
90 | RVFYIVDMVFIFKRCSIRES | inactive
91 | RVGTMLHGDWAYCHR | inactive
92 | RVKSKDANSGGSMVCASRVL | inactive
93 | RVLQKAPRWAMGFARW | inactive
94 | RVLYSFQCAFLMDKETSSGR | inactive
95 | RVMFMASVWSNCGLWSSGTS | 1.39 ± 0.15
96 | RVRFLCIMFWDH | -0.038 ± 0.66

Row | Substance | amyloid nucleation score
97 | RVRSDGANGWGVVMNACWMS | inactive
98 | RVSNGPIIYRRMHAAGDNLT | inactive
99 | RVSYKICKERKF | inactive
100 | RVYFKTGFPMVLLSKKRGSE | 0.952 ± 0.19
101 | RVYVLLLNGQPFCRKYRL | inactive
102 | RWDVEIPNLQICKRT | inactive
103 | RWFLSWWIYFEVKPNDNSFF | inactive
104 | RWLLMYLLLRSTATN | inactive
105 | RWPLMMTFSATIVGYTVVWA | inactive
106 | RWRFRRWVS | inactive
107 | RWSLYLGRSRMKLRATVHSF | inactive
108 | RWSTLIVTCSAGPSDFVCDG | inactive
109 | RWWKKTIQIFKCFVKHLEWG | inactive
110 | RYAHRSKRNTSWHVYMFKVV | inactive
111 | RYCVS | inactive
112 | RYLRKEDDWFIDRAVD | inactive
113 | RYMHGYCILET | inactive
114 | RYNGTGIKYWKTY | inactive
115 | RYWWNYWLLPRWFFVQLGSC | inactive
116 | RYYIMILLS | inactive
117 | SACSYYTMHHIFGAMFHN | inactive
